Source: PMC6061780 (Nucleic Acids Research, 2018)

B1: Sc eIF4E II-AA lateral surface mutant, His6 tag removed (ITC) (domain or fragment)
chain: GPHMTVLSDSAHFDVKHPLNTKWTLWYTKPAVDKSESWSDLLRPVTSFQTVEEFWAAIQNAPEPHELPLKSDYHVFRNDVRPEWEDEANAKGGKWSFQLRGKGADIDELWLRTLLAVIGETIDEDDSQINGVVLSIRKGGNKFALWTKSEDKEPLLRIGGKFKQVLKLTDDGHLEFFPHSSANGRHPQPSITL

What was measured:
Experiment in all cases: ITC
[1] = target: T1, Sc eIF4E (residues T25–L213), His6 tag removed (Saccharomyces cerevisiae, UniProt P07260 25-213)
T1 sequence (looked up): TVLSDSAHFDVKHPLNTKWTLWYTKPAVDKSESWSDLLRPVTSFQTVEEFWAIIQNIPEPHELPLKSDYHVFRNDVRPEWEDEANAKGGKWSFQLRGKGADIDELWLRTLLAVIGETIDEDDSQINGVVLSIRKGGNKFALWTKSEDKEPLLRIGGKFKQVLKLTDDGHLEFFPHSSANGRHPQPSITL

[2] = target: T2, Sc eIF4E Δ34 (residues V35–L213), His6 tag removed (Saccharomyces cerevisiae, UniProt P07260 35-213)
T2 sequence (looked up): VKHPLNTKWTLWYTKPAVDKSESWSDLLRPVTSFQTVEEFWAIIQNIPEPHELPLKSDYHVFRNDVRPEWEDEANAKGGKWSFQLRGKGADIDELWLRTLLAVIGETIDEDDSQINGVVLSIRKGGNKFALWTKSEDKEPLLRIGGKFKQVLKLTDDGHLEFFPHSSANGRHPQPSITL

[3] = target: Sc eIF4G (residues V448–N500; C+L+NC)-GB1 (Saccharomyces cerevisiae, UniProt P39935 448-500)

Binder	Kd [1] [nM]	Kd [2] [nM]	Kd [3] [nM]
GPHMDLQYKTYAYSMNELYHLKPSLA (domain or fragment) [Sc Eap1p canonical motif (C)-GB1]	3400 ± 300		
KKTAMLNFSSLTDPITNYKPMDLQYKTYAYSMNELYHLKPSLA (domain or fragment, Saccharomyces cerevisiae, UniProt P36041 80-122, looked up) [Sc Eap1p (residues K80–A122; N+C peptide)-GB1]	8 ± 4		
TDPITNYKPMDLQYKTYAYSMNELYHLKPSLA (domain or fragment, Saccharomyces cerevisiae, UniProt P36041 91-122, looked up) [Sc Eap1p (T91–A122; N_(short)+C)-GB1]	12.9 ± 0.9	8.8 ± 0.5	
SASYEEDPLISELVRSLPKRKFWRLRMG (domain or fragment, Saccharomyces cerevisiae, UniProt P36041 123-150, looked up) [Sc Eap1p L+NC fragment (residues S123–G150)-GB1]	1000 ± 100		
B1			1020 ± 90
